The values below come from article PMC5404835.

In this assay the target is C-peptide-mCherry generated from RINS1 (human). Description: western blot of cell lysate (band size); lysates of MIN6 cells expressing RINS1 (lysis buffer 10 mM Tris/Cl pH 7.5, 150 mM NaCl, 0.5 mM EDTA, 0.5% NP-40), NuPAGE 4-12% Bis-Tris gel, anti-mCherry antibody.

As to “C-peptide-mCherry generated from RINS1 (domain or fragment)”, the stoichiometry N worked out at 2.
